Paper PMC12663243 (Scientific Reports, 2025)

Columns and labels:
[1] = target: human somatostatin receptor 2 (SSTR2), PRESTO-Tango construct (human) (UniProt P30874)
[2] = target: human somatostatin receptor 4 (SSTR4), PRESTO-Tango construct (human) (UniProt P31391)
[3] = target: human somatostatin receptor 1 (SSTR1), PRESTO-Tango construct (human) (UniProt P30872)
human somatostatin receptor 1 (SSTR1), PRESTO-Tango construct (human), sequence (P30872 whole entry): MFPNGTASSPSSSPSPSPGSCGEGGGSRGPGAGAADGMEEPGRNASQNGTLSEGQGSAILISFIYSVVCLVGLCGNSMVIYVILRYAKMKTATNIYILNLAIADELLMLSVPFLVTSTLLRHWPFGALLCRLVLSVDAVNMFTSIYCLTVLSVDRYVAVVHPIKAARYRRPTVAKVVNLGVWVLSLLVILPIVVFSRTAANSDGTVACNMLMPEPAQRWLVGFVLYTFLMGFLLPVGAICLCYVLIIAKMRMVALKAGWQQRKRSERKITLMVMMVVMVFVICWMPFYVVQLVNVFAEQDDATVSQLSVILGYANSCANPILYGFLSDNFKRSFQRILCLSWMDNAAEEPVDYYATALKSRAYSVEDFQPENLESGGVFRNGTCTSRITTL

human somatostatin receptor 2 (SSTR2), PRESTO-Tango construct (human), sequence (P30874 whole entry): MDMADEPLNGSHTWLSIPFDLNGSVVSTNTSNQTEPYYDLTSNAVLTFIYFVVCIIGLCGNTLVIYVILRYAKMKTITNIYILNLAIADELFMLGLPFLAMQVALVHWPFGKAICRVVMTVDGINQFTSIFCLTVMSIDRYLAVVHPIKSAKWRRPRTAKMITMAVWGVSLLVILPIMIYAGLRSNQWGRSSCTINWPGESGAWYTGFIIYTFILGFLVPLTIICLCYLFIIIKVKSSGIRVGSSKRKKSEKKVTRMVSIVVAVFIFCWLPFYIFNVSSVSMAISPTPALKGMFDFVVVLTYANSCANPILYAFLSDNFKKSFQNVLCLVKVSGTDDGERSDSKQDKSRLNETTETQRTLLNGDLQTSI
human somatostatin receptor 4 (SSTR4), PRESTO-Tango construct (human), sequence (P31391 whole entry): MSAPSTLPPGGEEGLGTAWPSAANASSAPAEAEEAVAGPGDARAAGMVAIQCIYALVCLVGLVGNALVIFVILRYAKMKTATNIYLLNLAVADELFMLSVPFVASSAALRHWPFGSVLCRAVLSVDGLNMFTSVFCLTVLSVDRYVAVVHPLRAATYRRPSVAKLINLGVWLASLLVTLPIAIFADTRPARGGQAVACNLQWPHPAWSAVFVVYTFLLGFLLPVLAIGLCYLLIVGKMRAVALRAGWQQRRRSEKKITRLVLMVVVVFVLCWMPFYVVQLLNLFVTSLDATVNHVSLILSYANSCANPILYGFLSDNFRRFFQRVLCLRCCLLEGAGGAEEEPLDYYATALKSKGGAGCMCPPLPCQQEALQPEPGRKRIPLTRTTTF

Substance | PRESTO-Tango β-arrestin recruitment assay (HTLA cells), EC50 [1] [nM] | PRESTO-Tango β-arrestin recruitment assay (HTLA cells), EC50 [2] [nM] | PRESTO-Tango β-arrestin recruitment assay (HTLA cells), EC50 [3] [nM]
consomatin Fj2 (peptide) | 200 | 2000 | –
consomatin Pr1 (peptide) | 41 | – | 130
